Reference: IntAct's records for PubMed 31515488

B1: Serine/threonine-protein kinase PAK 6 (Homo sapiens), Q9NQU5 (parent)
chain: MFRKKKKKRPEISAPQNFQHRVHTSFDPKEGKFVGLPPQWQNILDTLRRPKPVVDPSRITRVQLQPMKTVVRGSAMPVDGYISGLLNDIQKLSVISSNTLRGRSPTSRRRAQSLGLLGDEHWATDPDMYLQSPQSERTDPHGLYLSCNGGTPAGHKQMPWPEPQSPRVLPNGLAAKAQSLGPAEFQGASQRCLQLGACLQSSPPGASPPTGTNRHGMKAAKHGSEEARPQSCLVGSATGRPGGEGSPSPKTRESSLKRRLFRSMFLSTAATAPPSSSKPGPPPQSKPNSSFRPPQKDNPPSLVAKAQSLPSDQPVGTFSPLTTSDTSSPQKSLRTAPATGQLPGRSSPAGSPRTWHAQISTSNLYLPQDPTVAKGALAGEDTGVVTHEQFKAALRMVVDQGDPRLLLDSYVKIGEGSTGIVCLAREKHSGRQVAVKMMDLRKQQRRELLFNEVVIMRDYQHFNVVEMYKSYLVGEELWVLMEFLQGGALTDIVSQVRLNEEQIATVCEAVLQALAYLHAQGVIHRDIKSDSILLTLDGRVKLSDFGFCAQISKDVPKRKSLVGTPYWMAPEVISRSLYATEVDIWSLGIMVIEMVDGEPPYFSDSPVQAMKRLRDSPPPKLKNSHKVSPVLRDFLERMLVRDPQERATAQELLDHPFLLQTGLPECLVPLIQLYRKQTSTC
B2: Methanethiol oxidase (Homo sapiens), Q13228 (parent)
chain: MATKCGNCGPGYSTPLEAMKGPREEIVYLPCIYRNTGTEAPDYLATVDVDPKSPQYCQVIHRLPMPNLKDELHHSGWNTCSSCFGDSTKSRTKLVLPSLISSRIYVVDVGSEPRAPKLHKVIEPKDIHAKCELAFLHTSHCLASGEVMISSLGDVKGNGKGGFVLLDGETFEVKGTWERPGGAAPLGYDFWYQPRHNVMISTEWAAPNVLRDGFNPADVEAGLYGSHLYVWDWQRHEIVQTLSLKDGLIPLEIRFLHNPDAAQGFVGCALSSTIQRFYKNEGGTWSVEKVIQVPPKKVKGWLLPEMPGLITDILLSLDDRFLYFSNWLHGDLRQYDISDPQRPRLTGQLFLGGSIVKGGPVQVLEDEELKSQPEPLVVKGKRVAGGPQMIQLSLDGKRLYITTSLYSAWDKQFYPDLIREGSVMLQVDVDTVKGGLKLNPNFLVDFGKEPLGPALAHELRYPGGDCSSDIWI
partner: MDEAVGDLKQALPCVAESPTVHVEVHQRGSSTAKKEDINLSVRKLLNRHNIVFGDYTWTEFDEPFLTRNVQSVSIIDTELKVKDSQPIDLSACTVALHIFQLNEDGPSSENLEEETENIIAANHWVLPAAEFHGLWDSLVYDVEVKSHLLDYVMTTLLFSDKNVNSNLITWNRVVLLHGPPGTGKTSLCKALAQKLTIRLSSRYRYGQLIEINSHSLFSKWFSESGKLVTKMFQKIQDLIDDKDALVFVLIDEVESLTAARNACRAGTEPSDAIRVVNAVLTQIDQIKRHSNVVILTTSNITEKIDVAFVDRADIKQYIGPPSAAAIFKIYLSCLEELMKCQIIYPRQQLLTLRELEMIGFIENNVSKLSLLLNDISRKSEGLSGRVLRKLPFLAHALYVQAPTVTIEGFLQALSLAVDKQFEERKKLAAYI
B3: Alpha-ketoglutarate-dependent dioxygenase alkB homolog 4 (Homo sapiens), Q9NXW9 (parent)
chain: MAAAAAETPEVLRECGCKGIRTCLICERQRGSDPPWELPPAKTYRFIYCSDTGWAVGTEESDFEGWAFPFPGVMLIEDFVTREEEAELVRLMDRDPWKLSQSGRRKQDYGPKVNFRKQKLKTEGFCGLPSFSREVVRRMGLYPGLEGFRPVEQCNLDYCPERGSAIDPHLDDAWLWGERLVSLNLLSPTVLSMCREAPGSLLLCSAPSAAPEALVDSVIAPSRSVLCQEVEVAIPLPARSLLVLTGAARHQWKHAIHRRHIEARRVCVTFRELSAEFGPGGRQQELGQELLRIALSFQGRPV
B4: Tektin-4 (Homo sapiens), Q8WW24 (parent)
chain: MAQTVPPCELPCKEYDVARNTGAYTSSGLATASFRTSKYLLEEWFQNCYARYHQAFADRDQSERQRHESQQLATETQALAQRTQQDSTRTVGERLQDTHSWKSELQREMEALAAETNLLLAQKQRLERALDATEVPFSITTDNLQCRERREHPNLVRDHVETELLKEAELIRNIQELLKRTIMQAVSQIRLNREHKETCEMDWSDKMEAYNIDETCGRHHSQSTEVQAHPYSTTFQESASTPETRAKFTQDNLCRAQRERLASANLRVLVDCILRDTSEDLRLQCDAVNLAFGRRCEELEDARYKLHHHLHKTLREITDQEHNVAALKQAIKDKEAPLHVAQTRLYLRSHRPNMELCRDAAQFRLLSEVEELNMSLTALREKLLEAEQSLRNLEDIHMSLEKDIAAMTNSLFIDRQKCMAHRTRYPTILQLAGYQ
B5: Mothers against decapentaplegic homolog 4 (Homo sapiens), Q13485 (parent)
chain: MDNMSITNTPTSNDACLSIVHSLMCHRQGGESETFAKRAIESLVKKLKEKKDELDSLITAITTNGAHPSKCVTIQRTLDGRLQVAGRKGFPHVIYARLWRWPDLHKNELKHVKYCQYAFDLKCDSVCVNPYHYERVVSPGIDLSGLTLQSNAPSSMMVKDEYVHDFEGQPSLSTEGHSIQTIQHPPSNRASTETYSTPALLAPSESNATSTANFPNIPVASTSQPASILGGSHSEGLLQIASGPQPGQQQNGFTGQPATYHHNSTTTWTGSRTAPYTPNLPHHQNGHLQHHPPMPPHPGHYWPVHNELAFQPPISNHPAPEYWCSIAYFEMDVQVGETFKVPSSCPIVTVDGYVDPSGGDRFCLGQLSNVHRTEAIERARLHIGKGVQLECKGEGDVWVRCLSDHAVFVQSYYLDREAGRAPGDAVHKIYPSAYIKVFDLRQCHRQMQQQAATAQAAAAAQAAAVAGNIPGPGSVGGIAPAISLSAAAGIGVDDLRRLCILRMSFVKGWGPDYPRQSIKETPCWIEIHLHRALQLLDEVLHTMPIADPQPLD
partner: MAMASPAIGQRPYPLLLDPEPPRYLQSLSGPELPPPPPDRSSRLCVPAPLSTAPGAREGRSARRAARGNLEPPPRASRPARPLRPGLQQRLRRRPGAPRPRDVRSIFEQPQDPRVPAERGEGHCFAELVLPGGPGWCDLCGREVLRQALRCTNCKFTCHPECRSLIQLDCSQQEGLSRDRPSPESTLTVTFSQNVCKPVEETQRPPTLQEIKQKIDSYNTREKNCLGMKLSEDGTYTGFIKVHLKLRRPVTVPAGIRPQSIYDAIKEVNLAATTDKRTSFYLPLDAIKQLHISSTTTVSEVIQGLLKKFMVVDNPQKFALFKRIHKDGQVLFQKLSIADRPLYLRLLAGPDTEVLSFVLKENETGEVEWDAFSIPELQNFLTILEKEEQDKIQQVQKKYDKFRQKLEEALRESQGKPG
B6: Transmembrane protein 79 (Homo sapiens), Q9BSE2 (parent)
chain: MTEQETLALLEVKRSDSPEKSSPQALVPNGRQPEGEGGAESPGAESLRVGSSAGSPTAIEGAEDGLDSTVSEAATLPWGTGPQPSAPFPDPPGWRDIEPEPPESEPLTKLEELPEDDANLLPEKAARAFVPIDLQCIERQPQEDLIVRCEAGEGECRTFMPPRVTHPDPTERKWAEAVVRPPGCSCGGCGSCGDREWLRAVASVGAALILFPCLLYGAYAFLPFDVPRLPTMSSRLIYTLRCGVFATFPIVLGILVYGLSLLCFSALRPFGEPRREVEIHRRYVAQSVQLFILYFFNLAVLSTYLPQDTLKLLPLLTGLFAVSRLIYWLTFAVGRSFRGFGYGLTFLPLLSMLMWNLYYMFVVEPERMLTATESRLDYPDHARSASDYRPRPWG
partner: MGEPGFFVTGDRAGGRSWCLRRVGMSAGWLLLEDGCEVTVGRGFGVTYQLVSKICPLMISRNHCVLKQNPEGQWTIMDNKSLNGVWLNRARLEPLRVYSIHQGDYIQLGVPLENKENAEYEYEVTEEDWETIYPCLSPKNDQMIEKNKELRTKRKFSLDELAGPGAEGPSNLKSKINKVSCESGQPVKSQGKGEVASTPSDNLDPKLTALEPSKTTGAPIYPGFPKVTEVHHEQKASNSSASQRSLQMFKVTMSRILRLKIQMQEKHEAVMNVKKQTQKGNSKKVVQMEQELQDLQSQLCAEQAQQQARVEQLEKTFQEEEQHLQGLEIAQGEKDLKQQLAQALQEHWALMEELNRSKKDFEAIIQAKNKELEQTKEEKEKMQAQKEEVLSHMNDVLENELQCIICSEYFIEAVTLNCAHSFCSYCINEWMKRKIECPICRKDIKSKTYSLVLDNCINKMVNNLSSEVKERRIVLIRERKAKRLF

Variants of: B1
Conditions: with rhoj_human RHOJ

| Variant | effect of a mutation on the interaction |
| --- | --- |
| L514R | disrupting interaction strength |

Variants of: B2
Conditions: with pch2_human TRIP13, Q15645

| Variant | effect of a mutation on the interaction |
| --- | --- |
| R211Q | with no effect |

Variants of: B3
Conditions: with dtx2_human DTX2, Q86UW9
Chain of dtx2_human DTX2, Q86UW9 (Q86UW9 whole entry): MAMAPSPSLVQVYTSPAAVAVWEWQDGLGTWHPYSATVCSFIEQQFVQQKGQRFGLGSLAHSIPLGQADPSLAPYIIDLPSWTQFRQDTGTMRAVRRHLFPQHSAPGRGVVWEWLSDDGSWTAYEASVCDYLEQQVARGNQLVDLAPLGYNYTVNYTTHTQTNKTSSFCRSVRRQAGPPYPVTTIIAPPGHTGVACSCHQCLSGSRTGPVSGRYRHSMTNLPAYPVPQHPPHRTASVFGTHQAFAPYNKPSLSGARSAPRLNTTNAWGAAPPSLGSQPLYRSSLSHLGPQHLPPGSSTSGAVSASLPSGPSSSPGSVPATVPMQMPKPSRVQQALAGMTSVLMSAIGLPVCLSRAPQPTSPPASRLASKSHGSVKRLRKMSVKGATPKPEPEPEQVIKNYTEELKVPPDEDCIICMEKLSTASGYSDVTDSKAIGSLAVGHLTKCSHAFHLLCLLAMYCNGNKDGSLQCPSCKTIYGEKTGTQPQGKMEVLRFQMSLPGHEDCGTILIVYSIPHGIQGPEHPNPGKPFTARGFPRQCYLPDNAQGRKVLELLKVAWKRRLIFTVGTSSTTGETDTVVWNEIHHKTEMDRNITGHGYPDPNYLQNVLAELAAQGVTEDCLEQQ

| Variant | effect of a mutation on the interaction |
| --- | --- |
| R239C | with no effect |

Variants of: B4
Conditions: with atg5_human ATG5, Q9H1Y0
Chain of atg5_human ATG5, Q9H1Y0 (Q9H1Y0 whole entry): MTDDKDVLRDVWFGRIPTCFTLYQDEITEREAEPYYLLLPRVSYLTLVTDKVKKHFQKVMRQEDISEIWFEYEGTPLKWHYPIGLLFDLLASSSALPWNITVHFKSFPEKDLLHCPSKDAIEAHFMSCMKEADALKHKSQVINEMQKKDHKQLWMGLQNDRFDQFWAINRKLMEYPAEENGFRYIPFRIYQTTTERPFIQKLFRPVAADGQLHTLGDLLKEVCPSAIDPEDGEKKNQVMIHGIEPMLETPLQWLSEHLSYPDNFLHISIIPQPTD

| Variant | effect of a mutation on the interaction |
| --- | --- |
| M374T | with no effect |
| M374V | with no effect |
| S100G | with no effect |
| A80V | with no effect |
| D403N | with no effect |
| I404T | disrupting interaction strength |

Variants of: B4
Conditions: with trip6_human TRIP6, Q15654
Chain of trip6_human TRIP6, Q15654 (Q15654 whole entry): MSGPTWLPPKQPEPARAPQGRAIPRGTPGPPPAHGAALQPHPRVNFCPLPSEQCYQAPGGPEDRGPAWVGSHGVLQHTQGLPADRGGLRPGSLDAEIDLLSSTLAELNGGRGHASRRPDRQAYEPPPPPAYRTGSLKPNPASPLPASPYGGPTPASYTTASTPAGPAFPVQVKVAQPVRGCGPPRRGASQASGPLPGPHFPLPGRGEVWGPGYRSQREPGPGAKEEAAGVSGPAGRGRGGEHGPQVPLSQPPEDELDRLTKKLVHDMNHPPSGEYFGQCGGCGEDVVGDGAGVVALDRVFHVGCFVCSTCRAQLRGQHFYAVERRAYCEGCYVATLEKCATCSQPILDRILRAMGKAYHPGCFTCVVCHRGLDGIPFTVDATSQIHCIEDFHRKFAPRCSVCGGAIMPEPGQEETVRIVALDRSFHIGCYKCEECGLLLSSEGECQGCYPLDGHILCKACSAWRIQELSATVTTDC

| Variant | effect of a mutation on the interaction |
| --- | --- |
| M374V | with no effect |
| T83M | with no effect |
| S100G | with no effect |

Variants of: B4
Conditions: with maga4_human MAGEA4, P43358
Chain of maga4_human MAGEA4, P43358 (P43358 whole entry): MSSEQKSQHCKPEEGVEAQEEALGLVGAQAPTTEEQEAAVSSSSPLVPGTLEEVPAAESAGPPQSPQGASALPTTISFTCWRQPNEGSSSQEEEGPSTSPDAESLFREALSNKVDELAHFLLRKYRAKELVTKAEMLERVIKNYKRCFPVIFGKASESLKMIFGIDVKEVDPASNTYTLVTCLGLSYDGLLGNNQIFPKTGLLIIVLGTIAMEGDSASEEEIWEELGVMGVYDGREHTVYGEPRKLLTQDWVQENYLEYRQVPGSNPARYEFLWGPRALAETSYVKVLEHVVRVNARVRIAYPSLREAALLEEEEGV

| Variant | effect of a mutation on the interaction |
| --- | --- |
| M374V | with no effect |
| T83M | with no effect |
| S100G | with no effect |

Variants of: B5
Conditions: with rasf5_human RASSF5, Q8WWW0

| Variant | effect of a mutation on the interaction |
| --- | --- |
| G352R | with no effect |
| N13S | with no effect |
| R361C | with no effect |
| V350D | disrupting interaction strength |
| E330K | with no effect |
| C324R | disrupting interaction strength |
| Y353S | with no effect |
| L533R | with no effect |

Variants of: B6
Conditions: with rnf8_human RNF8, O76064

| Variant | effect of a mutation on the interaction |
| --- | --- |
| V147M | with no effect |
